Data set [1] in a line: DSF thermostability of Ric8A constructs and Ric8A1–492 mutants (protein alone). It counts as physicochemical, bovine. As to the method:
Stabilities of Ric8A constructs with and without peptide ligands were assessed using differential scanning fluorimetry (DSF), in which an increase in fluorescence of the Sypro Orange dye is measured. Ric8A1–492, Ric8A1–452 and Ric8A1–426 in 20 mM Tris-HCl (pH 7.5) buffer containing 150 mM KCl, 5% glycerol, and 1 mM TCEP with and without peptide were used at a final concentration of 0.5 mg/ml and were supplemented with a 1000-fold dilution of Sypro Orange dye (Invitrogen). Temperature was increased at 1 °C/minute and fluorescence signals were recorded using real-time PCR (C1000 Touch thermal cycler, Bio Rad), with the cycler set to FRET mode and the excitation wavelength set at 450–490 nm and the emission wavelength at 560–580 nm.

A further data set has as its system Gαt333–350. As to the kind of experiment: BLI: Ric8A1–492 and its mutants binding to biotinylated Gαt333–350. Conditions: for binding to Gαt333–350 (in words): BLI; for Kd: BLI steady state. As to the method: (§1) An Octet RED96 system and streptavidin (SA)-coated biosensors (FortéBio, Menlo Park, CA) were used to measure association and dissociation kinetics for Gα peptides or the full-length Avi-tagged Gαt in relation to Ric8A1–492, Ric8A1–452, and Ric8A1–426. To obtain the Avi-tagged Gαt, Gαt was cloned into modified pET21a vector with the N-terminal His6-tag followed by the Avi tag and TEV cleavage site[59]. The Avi-tagged I340Q/N343H mutant of Gαt was prepared by QuikChange protocol. BL21(DE3) cells for expression of the Avi-tagged Gαt were grown in 2TY media supplemented with biotin (10 mg/liter), induced at OD600 of 0.6 with 50 µM IPTG and further grown overnight at 16 °C. Binding studies were performed in 20 mM Tris, 150 mM KCl, 5% glycerol, 1 mM TCEP, 0.5 mg/ml BSA, pH 8.0. All steps were performed at 26 °C, with biosensors stirred into 0.2 ml of sample in each well at 1000 rpm, and at a data acquisition rate of 5.0 Hz. N-terminally biotinylated Gαt333–350, Gαs363–380, C1 peptide and C2 peptide were loaded onto SA sensors at a concentration of 0.05, 0.05, 0.005, and 0.01 mg/ml for 40–90 seconds. Data for association and dissociation phases of the assay were collected as shown in Fig. 1b and Supplementary Figs. 8, 11, 12, and 14. To correct for baseline drift and non-specific binding, reference sensors lacking bound Gα peptide were used in the BLI assays with Ric8A proteins at the highest concentrations. Kinetic data fitting was performed using FortéBio Data Analysis software 10.0. For each concentration of Ric8A1–492, dissociation rate constant (kd) values were calculated from the corresponding dissociation phases of the curves. These kd values were used to calculate the association rate constant (ka) values from the association phases for each concentration according to the equation1 ka=kobserved-kd∕Ric8A1-492 The average ka and kd were calculated as means of the individual ka and kd values for all curves. Equilibrium dissociation constant KD was calculated as mean kd/mean ka. Steady-state data fitting was performed using the GraphPad Prism 7 software with the equation for one site specific binding.

A further data set has as its system Gαt. As to the kind of experiment: BLI: Ric8A1–492 and its mutants binding to full-length Avi-tagged Gαt. As to the method:
as §1
A general note: BLI is a label-free optical method that tracks binding on a fibre tip over time.

[2] abbreviates: source data, experiment 1, read-out: KD (uM), Gαt333-350.
Where [3] appears, read: source data, experiment 2, read-out: KD (uM), Gαt333-350.
[4] abbreviates: source data, experiment 3, read-out: KD (uM), Gαt333-350.
Setting [5] is: source data, mean of replicates, read-out: Mean KD, Gαt333-350.
Setting [6] is: BLI steady state, source data, experiment 1, read-out: KD (uM), Gαt.
Setting [7] is: BLI steady state, source data, experiment 2, read-out: KD (uM), Gαt.
[8] abbreviates: BLI steady state, source data, experiment 3, read-out: KD (uM), Gαt.
The mark [9] stands for this setting: BLI steady state, source data, mean of replicates, read-out: mean KD, Gαt.
The mark [10] stands for this setting: DSF, protein alone, source data, mean of replicates.
[11] abbreviates: DSF, protein alone, source data, replicate 1.
[12] abbreviates: DSF, protein alone, source data, replicate 2.
Setting [13] is: DSF, protein alone, source data, replicate 3.
[14] abbreviates: DSF, protein alone, source data, replicate 4.

Data on four molecules can be found in paper PMC6625990, “Structural underpinnings of Ric8A function as a G-protein α-subunit chaperone and guanine-nucleotide exchange factor” (Nature Communications, 2019).

Where two headings read alike, the source gives them in different places. A value given as a limit tells only on which side of the number the result lay.

As a reminder, the Tm is the temperature at which the thermal transition is half complete. As a reminder, the Kd is the constant that tells how readily two partners part at equilibrium.

B1: Ric8A1–426: bovine Ric8A construct lacking the C-terminal region, residues 1–426 (protein)
chain: MEPRAVADALETGEEDVVMEALRAYNRENSQSFTFDDAQQEDRKRLAKLLVSVLEQGLPPSRRVIWLQSIRILSRDRSCLDSFTSRRSLQALACYAGISASQGSVPEPLNMDVVLESLKCLCNLVLSSPVAQALAAEAGLVVRLAERVGLCRQSSFPHDVQFFDLRLLFLLTALRTDVRQQLFQELQGVRLLTRALELTLGMTEGERHPELLPPQETERAMEILKVLFNITFDSIKREVDEEDAALYRHLGTLLRHCVMLAAAGDRTEELHGHAVNLLGNLPVKCLDVLLTLEPHEGSLEFLGVNMDVIRVLLSFMEKRLHQTHRLKESVAPVLSVLTECARMHRPARKFLKAQVLPPLRDVRTRPEVGELLRNKLVRLMTHLDTDVKRVAAEFLFVLCSESVPRFIKYTGYGNAAGLLAARGLMA
modifications: left off: His6, N-terminal, state not stated
For the molecule B1, the Tm in data set [1] (DSF, Sypro Orange, protein alone 0.5 mg/ml, 20 mM Tris-HCl pH 7.5, 150 mM KCl, 5% glycerol, 1 mM TCEP, 1 °C/minute, mean ± SD (n = 3)) was determined as 36.5 ± 1.1 °C. Further, the “mean Tm” value in data set [1] (Suppl Fig 14B DSF, mean of 3 experiments, SD 1.1) is reported as 36.5 C.

B2: A173W: A173 mutant of Ric8A1–492, printed A173W in figures and source data, A173F in text (protein)
chain: MEPRAVADALETGEEDVVMEALRAYNRENSQSFTFDDAQQEDRKRLAKLLVSVLEQGLPPSRRVIWLQSIRILSRDRSCLDSFTSRRSLQALACYAGISASQGSVPEPLNMDVVLESLKCLCNLVLSSPVAQALAAEAGLVVRLAERVGLCRQSSFPHDVQFFDLRLLFLLTFLRTDVRQQLFQELQGVRLLTRALELTLGMTEGERHPELLPPQETERAMEILKVLFNITFDSIKREVDEEDAALYRHLGTLLRHCVMLAAAGDRTEELHGHAVNLLGNLPVKCLDVLLTLEPHEGSLEFLGVNMDVIRVLLSFMEKRLHQTHRLKESVAPVLSVLTECARMHRPARKFLKAQVLPPLRDVRTRPEVGELLRNKLVRLMTHLDTDVKRVAAEFLFVLCSESVPRFIKYTGYGNAAGLLAARGLMAGGRPEGQYSEDEDTDTDEYKEAKASINPVTGRVEEKPPNPMEGMTEEQKEHEAMKLVNMFDKLSRH
modifications: left off: His6, N-terminal, state not stated
Consider B2, for which, in the data set with Gαt333–350, the “binding to Gαt333–350 (in words)” value is “severely impaired the interaction”. The Kd on Gαt333–350 (mean ± SD, n = 3, ND – not detectable, read-out: KD (μM) Gαt333–350) is more than 10 µM; at Gαt333–350 (setting [2]), 23.8 µM; at Gαt333–350 (setting [3]) it was 26.9 µM; on Gαt333–350 (setting [4]) it was 26.8 µM; on Gαt333–350 (setting [5]), more than 10 µM; on Gαt (BLI steady state, mean ± SD, n = 3, ND – not detectable, read-out: KD (μM) Gαt), more than 10 µM. The Kd was 11.2 µM at Gαt (setting [6]); 11.5 µM at Gαt (setting [7]); 15.1 µM on Gαt (setting [8]); more than 10 µM on Gαt (setting [9]); more than 10 µM at Gαt (BLI, representative curve (Fig. 3g), read-out: KD, steady-state binding curve, Gαt). In the data set on Gαt (BLI), the “binding to Gαt (in words)” value is on record as “severely reduced affinity”. For the same molecule, in data set [1] (setting [10]), the “mean Tm” value was determined as 45.6 C. For the same molecule, the “Tm (C )” value is given as 45.57 C in data set [1] (setting [11]), 45.54 C in data set [1] (setting [12]), 45.74 C in data set [1] (setting [13]) and 45.49 C in data set [1] (setting [14]).

B3: N123E: N123E mutant of Ric8A1–492 (protein, UniProt Q5E9J8 1-492, looked up, variant N123E)
chain: MEPRAVADALETGEEDVVMEALRAYNRENSQSFTFDDAQQEDRKRLAKLLVSVLEQGLPPSRRVIWLQSIRILSRDRSCLDSFTSRRSLQALACYAGISASQGSVPEPLNMDVVLESLKCLCELVLSSPVAQALAAEAGLVVRLAERVGLCRQSSFPHDVQFFDLRLLFLLTALRTDVRQQLFQELQGVRLLTRALELTLGMTEGERHPELLPPQETERAMEILKVLFNITFDSIKREVDEEDAALYRHLGTLLRHCVMLAAAGDRTEELHGHAVNLLGNLPVKCLDVLLTLEPHEGSLEFLGVNMDVIRVLLSFMEKRLHQTHRLKESVAPVLSVLTECARMHRPARKFLKAQVLPPLRDVRTRPEVGELLRNKLVRLMTHLDTDVKRVAAEFLFVLCSESVPRFIKYTGYGNAAGLLAARGLMAGGRPEGQYSEDEDTDTDEYKEAKASINPVTGRVEEKPPNPMEGMTEEQKEHEAMKLVNMFDKLSRH
modifications: residues 1-492
Consider B3, for which the “binding to Gαt333–350 (in words)” value with Gαt333–350 is on record as “ablated the binding”. Further, the “binding to Gαt (in words)” value with Gαt (BLI) is recorded as “no Gαt binding was detected”. For the same molecule, the “mean Tm” value in data set [1] (setting [10]) worked out at 46.7 C. Also, the “Tm (C )” value in data set [1] (setting [11]) is listed as 46.78 C; in data set [1] (setting [12]), 46.59 C; in data set [1] (setting [13]) it was 46.65 C; in data set [1] (setting [14]), 46.83 C.

B4: F169R: F169R mutant of Ric8A1–492 (protein)
chain: MEPRAVADALETGEEDVVMEALRAYNRENSQSFTFDDAQQEDRKRLAKLLVSVLEQGLPPSRRVIWLQSIRILSRDRSCLDSFTSRRSLQALACYAGISASQGSVPEPLNMDVVLESLKCLCNLVLSSPVAQALAAEAGLVVRLAERVGLCRQSSFPHDVQFFDLRLLRLLTALRTDVRQQLFQELQGVRLLTRALELTLGMTEGERHPELLPPQETERAMEILKVLFNITFDSIKREVDEEDAALYRHLGTLLRHCVMLAAAGDRTEELHGHAVNLLGNLPVKCLDVLLTLEPHEGSLEFLGVNMDVIRVLLSFMEKRLHQTHRLKESVAPVLSVLTECARMHRPARKFLKAQVLPPLRDVRTRPEVGELLRNKLVRLMTHLDTDVKRVAAEFLFVLCSESVPRFIKYTGYGNAAGLLAARGLMAGGRPEGQYSEDEDTDTDEYKEAKASINPVTGRVEEKPPNPMEGMTEEQKEHEAMKLVNMFDKLSRH
modifications: left off: His6, N-terminal, state not stated
B4: the “binding to Gαt333–350 (in words)” value in the data set on Gαt333–350 was “severely impaired the interaction”. Further, the Kd on Gαt333–350 (setting [2]) came to 2.04 µM; at Gαt333–350 (setting [3]) it was 1.89 µM; on Gαt333–350 (setting [4]), 1.45 µM; on Gαt333–350 (source data, experiment 4, read-out: KD (uM), Gαt333-350), 1.89 µM; on Gαt333–350 (setting [5]) it was 1.8 µM; on Gαt (setting [6]) it was 2.04 µM. Moreover, the Kd on Gαt (setting [7]) came out at 1.84 µM; on Gαt (setting [8]) it was 1.66 µM; on Gαt (setting [9]), 1.8 µM. The “binding to Gαt (in words)” value in the data set on Gαt (BLI) was “severely reduced affinity”. The “mean Tm” value in data set [1] (setting [10]) is 45.6 C. Besides, the “Tm (C )” value in data set [1] (setting [11]) is listed as 45.84 C; in data set [1] (setting [12]), 45.62 C; in data set [1] (setting [13]) it was 45.65 C; in data set [1] (setting [14]), 45.38 C.
